# According to the Human Domainome abundance scans (Beltran et al. 2025):
# ± gives the uncertainty stated by the source.
# B1: Unconventional myosin-Ie, residues 1051 to 1108; numbered along this chain, Q12965 (parent)
# chain: PQVPQCKALYAYDAQDTDELSFNANDIIDIIKEDPSGWWTGRLRGKQGLFPNNYVTKI
# Variants of: B1
# Assay: abundance fitness (aPCA) (normalised: wild type 0, dead -1); higher = more abundant; growth selection in yeast, the domain comes from the species named
# Conditions: Homo sapiens
row,Variant,abundance fitness
1,PQVPQCKALYAYDAQDTDELSFNANDIIDEIKEDPSGWWTGRLRGKQGLFPNNYVTKI [I30E],-0.864 ± 0.069
2,PQVPQCKALYAYDAQDTDELSFNANDIIDRIKEDPSGWWTGRLRGKQGLFPNNYVTKI [I30R],-1.01 ± 0.067
3,PQVPQCKALYAYDAQDTDELSFNANDIIDYIKEDPSGWWTGRLRGKQGLFPNNYVTKI [I30Y],-1 ± 0.14
4,PQVPQCKALYAYDAQDTDELSFNANDIIDKIKEDPSGWWTGRLRGKQGLFPNNYVTKI [I30K],-1.04 ± 0.17
5,PQVPQCKALYAYDAQDTDELSFNANDIIDVIKEDPSGWWTGRLRGKQGLFPNNYVTKI [I30V],0.058 ± 0.054
6,PQVPQCKALYAYDAQDTDELSFNANDIIDNIKEDPSGWWTGRLRGKQGLFPNNYVTKI [I30N],-0.85 ± 0.32
7,PQVPQCKALYAYDAQDTDELSFNANDIIDSIKEDPSGWWTGRLRGKQGLFPNNYVTKI [I30S],-0.992 ± 0.13
8,PQVPQCKALYAYDAQDTDELSFNANDIIDMIKEDPSGWWTGRLRGKQGLFPNNYVTKI [I30M],-0.465 ± 0.097
9,PQVPQCKALYAYDAQDTDELSFNANDIIDFIKEDPSGWWTGRLRGKQGLFPNNYVTKI [I30F],-0.736 ± 0.33
10,PQVPQCKALYAYDAQDTDELSFNANDIIDHIKEDPSGWWTGRLRGKQGLFPNNYVTKI [I30H],-0.765 ± 0.21
11,PQVPQCKALYAYDAQDTDELSFNANDIIDDIKEDPSGWWTGRLRGKQGLFPNNYVTKI [I30D],-0.628 ± 0.24
12,PQVPQCKALYAYDAQDTDELSFNANDIIDCIKEDPSGWWTGRLRGKQGLFPNNYVTKI [I30C],-0.378 ± 0.04
13,PQVPQCKALYAYDAQDTDELSFNANDIIDLIKEDPSGWWTGRLRGKQGLFPNNYVTKI [I30L],-0.077 ± 0.055
14,PQVPQCKALYAYDAQDTDELSFNANDIIDWIKEDPSGWWTGRLRGKQGLFPNNYVTKI [I30W],-0.967 ± 0.14
15,PQVPQCKALYAYDAQDTDELSFNANDIIDTIKEDPSGWWTGRLRGKQGLFPNNYVTKI [I30T],-0.745 ± 0.16
16,PQVPQCKALYAYDAQDTDELSFNANDIIDQIKEDPSGWWTGRLRGKQGLFPNNYVTKI [I30Q],-0.891 ± 0.19
17,PQVPQCKALYAYDAQDTDELSFNANDIIDGIKEDPSGWWTGRLRGKQGLFPNNYVTKI [I30G],-0.719 ± 0.071
18,PQVPQCKALYAYDAQDTDELSFNANDIIDAIKEDPSGWWTGRLRGKQGLFPNNYVTKI [I30A],-0.78 ± 0.12
19,PQVPQCKALYAYDAQDTDELSFNANDIIDIICEDPSGWWTGRLRGKQGLFPNNYVTKI [K32C],-0.14 ± 0.051
20,PQVPQCKALYAYDAQDTDELSFNANDIIDIIGEDPSGWWTGRLRGKQGLFPNNYVTKI [K32G],-0.097 ± 0.029
21,PQVPQCKALYAYDAQDTDELSFNANDIIDIIAEDPSGWWTGRLRGKQGLFPNNYVTKI [K32A],-0.056 ± 0.04
22,PQVPQCKALYAYDAQDTDELSFNANDIIDIIMEDPSGWWTGRLRGKQGLFPNNYVTKI [K32M],-0.1 ± 0.074
23,PQVPQCKALYAYDAQDTDELSFNANDIIDIIIEDPSGWWTGRLRGKQGLFPNNYVTKI [K32I],0.028 ± 0.052

row,Variant,abundance fitness
1,PQVPQCKALYAYDAQDTDELSFNANDIIDIINEDPSGWWTGRLRGKQGLFPNNYVTKI [K32N],-0.009 ± 0.073
2,PQVPQCKALYAYDAQDTDELSFNANDIIDIIEEDPSGWWTGRLRGKQGLFPNNYVTKI [K32E],0.013 ± 0.064
3,PQVPQCKALYAYDAQDTDELSFNANDIIDIIDEDPSGWWTGRLRGKQGLFPNNYVTKI [K32D],-0.242 ± 0.099
4,PQVPQCKALYAYDAQDTDELSFNANDIIDIIREDPSGWWTGRLRGKQGLFPNNYVTKI [K32R],-0.042 ± 0.037
5,PQVPQCKALYAYDAQDTDELSFNANDIIDIITEDPSGWWTGRLRGKQGLFPNNYVTKI [K32T],-0.173 ± 0.074
6,PQVPQCKALYAYDAQDTDELSFNANDIIDIIFEDPSGWWTGRLRGKQGLFPNNYVTKI [K32F],-0.373 ± 0.3
7,PQVPQCKALYAYDAQDTDELSFNANDIIDIIQEDPSGWWTGRLRGKQGLFPNNYVTKI [K32Q],-0.139 ± 0.078
8,PQVPQCKALYAYDAQDTDELSFNANDIIDIIVEDPSGWWTGRLRGKQGLFPNNYVTKI [K32V],-0.119 ± 0.04
9,PQVPQCKALYAYDAQDTDELSFNANDIIDIILEDPSGWWTGRLRGKQGLFPNNYVTKI [K32L],-0.122 ± 0.038
10,PQVPQCKALYAYDAQDTDELSFNANDIIDIIWEDPSGWWTGRLRGKQGLFPNNYVTKI [K32W],-0.205 ± 0.069
11,PQVPQCKALYAYDAQDTDELSFNANDIIDIIYEDPSGWWTGRLRGKQGLFPNNYVTKI [K32Y],-0.105 ± 0.082
12,PQVPQCKALYAYDAQDTDELSFNANDIIDIIHEDPSGWWTGRLRGKQGLFPNNYVTKI [K32H],0.047 ± 0.077
13,PQVPQCKALYAYDAQDTDELSFNANDIIDIIKEHPSGWWTGRLRGKQGLFPNNYVTKI [D34H],-0.264 ± 0.23
14,PQVPQCKALYAYDAQDTDELSFNANDIIDIIKEQPSGWWTGRLRGKQGLFPNNYVTKI [D34Q],-0.431 ± 0.092
15,PQVPQCKALYAYDAQDTDELSFNANDIIDIIKERPSGWWTGRLRGKQGLFPNNYVTKI [D34R],-0.173 ± 0.053
16,PQVPQCKALYAYDAQDTDELSFNANDIIDIIKEKPSGWWTGRLRGKQGLFPNNYVTKI [D34K],-0.445 ± 0.087
17,PQVPQCKALYAYDAQDTDELSFNANDIIDIIKEFPSGWWTGRLRGKQGLFPNNYVTKI [D34F],-0.332 ± 0.12
18,PQVPQCKALYAYDAQDTDELSFNANDIIDIIKEPPSGWWTGRLRGKQGLFPNNYVTKI [D34P],-0.15 ± 0.043
19,PQVPQCKALYAYDAQDTDELSFNANDIIDIIKEAPSGWWTGRLRGKQGLFPNNYVTKI [D34A],-0.031 ± 0.051
20,PQVPQCKALYAYDAQDTDELSFNANDIIDIIKELPSGWWTGRLRGKQGLFPNNYVTKI [D34L],-0.3 ± 0.053
21,PQVPQCKALYAYDAQDTDELSFNANDIIDIIKEGPSGWWTGRLRGKQGLFPNNYVTKI [D34G],-0.118 ± 0.063
22,PQVPQCKALYAYDAQDTDELSFNANDIIDIIKENPSGWWTGRLRGKQGLFPNNYVTKI [D34N],0.014 ± 0.078
